Measurements as given in publication PMC9808734 (Nature Communications, 2023).

These binders were tested against HLA-A3 on CFPAC parental cells (Homo sapiens, HLA-A3 serotype, allele …, strain).

Row | Binder | binding result
1 | HLAA3_7 (VHH) VHH: EVQLVESGGGLVQPGGSLRLSCAASGFNVYYYWMHWVRQAPGKGLEWVASIYPDSDNTYYADSVKGRFTISADTSKNTAYLQMNSLRAEDTAVYYCSRGDYYYSYLDYWGQGTLVTVSS | binds
2 | HLAA3_2 (VHH) VHH: EVQLVESGGGLVQPGGSLRLSCAASGFNITKYSIHWVRQAPGKGLEWVAMVGPYSSYTYYADSVKGRFTISADTSKNTAYLQMNSLRAEDTAVYYCSRFYSSYAFDVWGQGTLVTVSS | binds
3 | HLAA3_10 (VHH) VHH: EVQLVESGGGLVQPGGSLRLSCAASGFNVYYSGMHWVRQAPGKGLEWVAKISPDSGSTYYADSVKGRFTISADTSKNTAYLQMNSLRAEDTAVYYCSRDMYSVRSAMDYWGQGTLVTVSS | binds
4 | HLAA3_5 (VHH) VHH: EVQLVESGGGLVQPGGSLRLSCAASGFNLSYYWMHWVRQAPGKGLEWVASIYPDGSYTWYADSVKGRFTISADTSKNTAYLQMNSLRAEDTAVYYCSRGTYFAMDYWGQGTLVTVSS | binds
5 | HLAA3_1 (VHH) VHH: EVQLVESGGGLVQPGGSLRLSCAASGFNVQGDGMHWVRQAPGKGLEWVAMVGPYSSYTYYADSVKGRFTISADTSKNTAYLQMNSLRAEDTAVYYCSRYSDGAFDYWGQGTLVTVSS | binds
6 | HLAA3_9 (VHH) VHH: EVQLVESGGGLVQPGGSLRLSCAASGFNISTWLIHWVRQAPGKGLEWVAVVYPDSSYTYYADSVKGRFTISADTSKNTAYLQMNSLRAEDTAVYYCSRSWFSKSAMDYWGQGTLVTVSS | binds
7 | HLAA3_6 (VHH) VHH: EVQLVESGGGLVQPGGSLRLSCAASGFNIFGYYMHWVRQAPGKGLEWVAVVSPGSGYTNYADSVKGRFTISADTSKNTAYLQMNSLRAEDTAVYYCSRALYSAYFAYWGQGTLVTVSS | binds

The remaining lines, values ahead:

Row | binding result | Binder
8 | binds | HLAA3_11 (VHH) VHH: EVQLVESGGGLVQPGGSLRLSCAASGFNIYSYGIHWVRQAPGKGLEWVAKVSPSSGYTYYADSVKGRFTISADTSKNTAYLQMNSLRAEDTAVYYCSRQYGYPYYFDYWGQGTLVTVSS
9 | binds | HLAA3_3 (VHH) VHH: EVQLVESGGGLVQPGGSLRLSCAASGFNIYSYAMHWVRQAPGKGLEWVASVAPGSGYTYYADSVKGRFTISADTSKNTAYLQMNSLRAEDTAVYYCSRNKYYTAYYMDYWGQGTLVTVSS
10 | binds | HLAA3_4 (VHH) VHH: EVQLVESGGGLVQPGGSLRLSCAASGFNIYSYAMHWVRQAPGKGLEWVASFVPGSYATYYADSVKGRFTISADTSKNTAYLQMNSLRAEDTAVYYCSRGYYASYYFDVWGQGTLVTVSS
11 | binds | HLAA3_8 (VHH) VHH: EVQLVESGGGLVQPGGSLRLSCAASGFNIYSYYIHWVRQAPGKGLEWVAKIYPDSGYTYYADSVKGRFTISADTSKNTAYLQMNSLRAEDTAVYYCSRSFSRYGYMDYWGQGTLVTVSS
